Test results: patent US20110294728
Where two headings read alike, the source gives them in different places.

Tests used:
[1] = system: HIV-1 integrase (HIV-1); assay: FP
[2] = target: monomeric p51 subunit of HIV-1 RT (UniProt P03366); assay: stopped-flow, FRET between Trp of RT and bis-ANS, without PAW
[3] = target: monomeric p51 subunit of HIV-1 RT (UniProt P03366); assay: stopped-flow, FRET between Trp of RT and bis-ANS, RT incubated with PAW

| Substance | IC50 [1] | IC50 ([1]; 3'-processing active, value is IC50 of PAW peptide, 10 mM MgCl2, 37 C) | kdis (dissociation rate constant of the RT heterodimer in 10% acetonitrile) [2] | kdis (dissociation rate constant of the RT heterodimer in 10% acetonitrile) [3] |
| --- | --- | --- | --- | --- |
| 21-mer U5 LTR end oligonucleotide | 15.2 µM | 12.7 µM |  |  |
| monomeric p66 subunit of HIV-1 RT |  |  | a dissociation rate constant kdis of 5.30±0.01 s^-1 | kdis=1.42±0.007 s^-1 |
